Experimental data published in patent US20190241648A1 (STATEN BIOTECHNOLOGY B V, published 2019).
Ends that are not written are not given here.

Legend:
Assay in all cases: cyclic peptide substitution array
[1] = target: T1, ApoC3 peptide S62R (human, thioether (positions not given here); also: cyclic (thioether), ring places not given here)
T1 peptide: DKFREFWDLDPEV
Procedure, shortened: (§1)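 Peptide microarrays incubated with antibody samples, then stained with goat anti-human IgG (Fc) DyLight680 and anti-HA DyLight800 control antibodies, scanned at intensity 7/7 (red/green). Secondary-only pre-stain checked background binding; framing HA peptides served as quality control; substitution effects read as changes in spot intensity.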

[2] = target: T2, ApoC3 peptide F64L (human, thioether (positions not given here); not fully specified (bridges); also: cyclic (thioether), positions not given here)
T2 peptide: DKFSELWDLDPEV
Procedure, shortened: as §1

[3] = target: T3, ApoC3 peptide P69Y (human, not fully specified; cyclic (thioether))
T3 peptide: DKFSEFWDLDYEV
Procedure, shortened: as §1

[4] = target: T4, ApoC3 peptide E70D (human, cyclic (thioether))
T4 peptide: DKFSEFWDLDPDV
Procedure, shortened: as §1

[5] = target: T5, ApoC3 peptide E63Y (human, cyclic (thioether))
T5 peptide: DKFSYFWDLDPEV
Procedure, shortened: as §1

[6] = target: T6, ApoC3 peptide V71K (human, thioether (positions not given here); also: cyclic (thioether), ring places not given here)
T6 peptide: DKFSEFWDLDPEK
Procedure, shortened: as §1

[7] = target: T7, ApoC3 peptide V71G (human, thioether (positions not given here); also: cyclic (thioether), ring places not given here)
T7 peptide: DKFSEFWDLDPEG
Procedure, shortened: as §1

[8] = target: T8, ApoC3 peptide L67T (human, thioether (positions not given here); not fully specified (bridges); also: thioether between a C-terminal Cys side chain and a modified N-terminus, the Cys is not in the chain)
T8 peptide: DKFSEFWDTDPEV
Procedure, shortened: as §1

[9] = target: T9, ApoC3 peptide S62H (human, thioether (positions not given here); also: cyclic (thioether), ring places not given here)
T9 peptide: DKFHEFWDLDPEV
Procedure, shortened: as §1

[10] = target: T10, ApoC3 peptide W65F (human, not fully specified; cyclic (thioether))
T10 peptide: DKFSEFFDLDPEV
Procedure, shortened: as §1

[11] = target: T11, ApoC3 peptide D59C (human, thioether (positions not given here); not fully specified (C-terminus, bridges))
T11 peptide: CKFSEFWDLDPEV
Procedure, shortened: as §1

[12] = target: T12, ApoC3 peptide D66G (human, not fully specified; cyclic (thioether))
T12 peptide: DKFSEFWGLDPEV
Procedure, shortened: as §1

[13] = target: T13, ApoC3 peptide K60R (human, cyclic (thioether))
T13 peptide: DRFSEFWDLDPEV
Procedure, shortened: as §1

[14] = target: T14, ApoC3 peptide E63N (human, cyclic (thioether))
T14 peptide: DKFSNFWDLDPEV
Procedure, shortened: as §1

[15] = target: T15, ApoC3 peptide V71H (human, thioether (positions not given here); also: cyclic (thioether), ring places not given here)
T15 peptide: DKFSEFWDLDPEH
Procedure, shortened: as §1

[16] = target: T16, ApoC3 peptide K60D (human, thioether (positions not given here); not fully specified (bridges); also: cyclic (thioether), positions not given here)
T16 peptide: DDFSEFWDLDPEV
Procedure, shortened: as §1

[17] = target: T17, ApoC3 peptide F64R (human, thioether (positions not given here); not fully specified (bridges); also: cyclic (thioether), positions not given here)
T17 peptide: DKFSERWDLDPEV
Procedure, shortened: as §1

[18] = target: T18, ApoC3 peptide V71M (human, thioether (positions not given here); also: cyclic (thioether), ring places not given here)
T18 peptide: DKFSEFWDLDPEM
Procedure, shortened: as §1

[19] = target: T19, ApoC3 peptide S62P (human, thioether (positions not given here); also: cyclic (thioether), ring places not given here)
T19 peptide: DKFPEFWDLDPEV
Procedure, shortened: as §1

[20] = target: T20, ApoC3 peptide W65D (human, not fully specified; cyclic (thioether))
T20 peptide: DKFSEFDDLDPEV
Procedure, shortened: as §1

[21] = target: T21, ApoC3 peptide F61W (human, cyclic (thioether))
T21 peptide: DKWSEFWDLDPEV
Procedure, shortened: as §1

[22] = target: T22, ApoC3 peptide E63T (human, cyclic (thioether))
T22 peptide: DKFSTFWDLDPEV
Procedure, shortened: as §1

[23] = target: T23, ApoC3 peptide W65S (human, cyclic (thioether))
T23 peptide: DKFSEFSDLDPEV
Procedure, shortened: as §1

[24] = target: T24, ApoC3 peptide S62K (human, thioether (positions not given here); also: cyclic (thioether), ring places not given here)
T24 peptide: DKFKEFWDLDPEV
Procedure, shortened: as §1

[25] = target: T25, ApoC3 peptide W65Y (human, cyclic (thioether))
T25 peptide: DKFSEFYDLDPEV
Procedure, shortened: as §1

[26] = target: T26, ApoC3 peptide S62V (human, thioether (positions not given here); also: cyclic (thioether), ring places not given here)
T26 peptide: DKFVEFWDLDPEV
Procedure, shortened: as §1

[27] = target: T27, ApoC3 peptide P69Q (human, not fully specified; cyclic (thioether))
T27 peptide: DKFSEFWDLDQEV
Procedure, shortened: as §1

[28] = target: T28, ApoC3 peptide S62I (human, thioether (positions not given here); also: cyclic (thioether), ring places not given here)
T28 peptide: DKFIEFWDLDPEV
Procedure, shortened: as §1

[29] = target: T29, ApoC3 peptide V71Q (human, not fully specified; cyclic (thioether))
T29 peptide: DKFSEFWDLDPEQ
Procedure, shortened: as §1

[30] = target: T30, ApoC3 peptide D68E (human, cyclic (thioether))
T30 peptide: DKFSEFWDLEPEV
Procedure, shortened: as §1

% of binding to wild-type peptide [1]: 1.45%
% of binding to wild-type peptide [2]: 118%
% of binding to wild-type peptide [3]: 15.4%
% of binding to wild-type peptide [4]: 82.9%
% of binding to wild-type peptide [5]: 90.9%
% of binding to wild-type peptide [6]: 91.1%
% of binding to wild-type peptide [7]: 91.9%
% of binding to wild-type peptide [8]: 168%
% of binding to wild-type peptide [9]: 2.89%
% of binding to wild-type peptide [10]: 5.5%
% of binding to wild-type peptide [11]: 66.2%
% of binding to wild-type peptide [12]: 0%
% of binding to wild-type peptide [13]: 112%
% of binding to wild-type peptide [14]: 31.3%
% of binding to wild-type peptide [15]: 72.8%
% of binding to wild-type peptide [16]: 200%
% of binding to wild-type peptide [17]: 73.7%
% of binding to wild-type peptide [18]: 138%
% of binding to wild-type peptide [19]: 0%
% of binding to wild-type peptide [20]: 0%
% of binding to wild-type peptide [21]: 15.7%
% of binding to wild-type peptide [22]: 0%
% of binding to wild-type peptide [23]: 0%
% of binding to wild-type peptide [24]: 4.05%
% of binding to wild-type peptide [25]: 0%
% of binding to wild-type peptide [26]: 30.5%
% of binding to wild-type peptide [27]: 24.3%
% of binding to wild-type peptide [28]: 0.64%
% of binding to wild-type peptide [29]: 86.8%
% of binding to wild-type peptide [30]: 40.1%
B1: Llama antibody 5E5 (antibody, V domains shown)
VH: QLQLVESGGGLVQPGGSLRLSCAASGFTFGTYSMRWVRQVPRKALEWVSSISTDGGGTAYRDSVKGRFTISRDNAKNTLYLQMNNLKPEDTAIYYCVIAGYSDWGQGTQVTVSS
VL: ATMLTQSPGSLSVVPGESASISCKTSQGLVHSDGKTYFYWFLQKPGQSPQQLIYQVSNRASGVPDRFTGSGSGTDFTLKISGVKAEDAGVYYCAQGTYYPHTFGSGTRLEIK
notes: detected with goat anti-human IgG (Fc); also called mAb 5E5
